“And” between values parts separate entries of the source, which are not always exact repeats. Equal entries are not always repeated.

The source of these data is patent publication US20080199851A1.

In test [1] the target is Inactivated influenza A virus Texas 1/77 (H3N2) (Influenza A virus Texas 1/77 (H3N2)). Briefly: lateral-flow sandwich, 7304 line + M4090913-Eu, 0.021 HA unit.
Test [2] has the same target. Briefly: lateral-flow sandwich, 7304 line + M4090913-Eu, 0.021 HA units.
Test [3] shares this target. The test is described as follows: lateral-flow sandwich, 7304 line + M4090913-Eu, 1 HA unit/test, against 0 HA.
For test [4] the target is unchanged. Briefly: lateral-flow sandwich, 7304 line + M4090913-Eu, 0.1 HA units/test, against 0 HA.
The target is the same in test [5]. Briefly: lateral-flow sandwich, 7304 line + M4090913-Eu, 0.02 HA units/test.
The target is the same in test [6]. Briefly: lateral-flow sandwich, 7304 line + M4090913-Eu, 0.041 HA units.
For test [7] the target is unchanged. The test is described as follows: lateral-flow sandwich, 7304 line + M4090913-Eu, 0.01 HA units/test, against 0 HA.
Test [8] shares this target. Briefly: lateral-flow sandwich, 7304 line + M4090913-Eu, 0.02 HA units/test, against 0 HA.
For test [9] the target is unchanged. Briefly: lateral-flow sandwich, 7304 line + M4090913-Eu, 0.1 HA units/test.
Test [10] shares this target. Briefly: lateral-flow sandwich, 7304 line + M4090913-gold, 0.41 HA/test.
In test [11] the target is Inactivated influenza B virus Hong Kong 5/72 (Influenza B virus Hong Kong 5/72). The test is described as follows: lateral-flow sandwich, A line: 7304 striped + M4090913-Eu.
For test [12], the target named is Inactivated influenza A virus Texas 1/77 (H3N2) (Influenza A virus Texas 1/77 (H3N2)). Briefly: lateral-flow sandwich, 7304 line + M4090913-gold, 1.64 HA/test.
Test [13] shares this target. The test is described as follows: lateral-flow sandwich, 7304 line + M4090913-Eu, 0.328 HA units.
For test [14] the target is unchanged. The test is described as follows: lateral-flow sandwich, 7304 line + M4090913-gold, 0.21 HA/test.
For test [15] the target is unchanged. The test is described as follows: lateral-flow sandwich, 7304 line + M4090913-gold, 0.105 HA/test.
Test [16] shares this target. The test is described as follows: lateral-flow sandwich, 7304 line + M4090913-Eu, 0.123 HA units.
Test [17] shares this target. Briefly: lateral-flow sandwich, 7304 line + M4090913-Eu, 0.082 HA units.
Test [18] has the same target. Briefly: lateral-flow sandwich, 7304 line + M4090913-Eu, 0.04 HA units/test, against 0 HA.
For test [19] the target is unchanged. Briefly: lateral-flow sandwich, 7304 line + M4090913-gold, 0.82 HA/test.
Test [20] shares this target. The test is described as follows: lateral-flow sandwich, 7304 line + M4090913-Eu, 1 HA unit/test.
For test [21] the target is unchanged. Briefly: lateral-flow sandwich, 7304 line + M4090913-Eu, 0.164 HA units.
Test [22] shares this target. The test is described as follows: lateral-flow sandwich, 7304 line + M4090913-Eu, 0.01 HA units/test.
Test [23] has the same target. Briefly: lateral-flow sandwich, 7304 line + M4090913-Eu, 0.04 HA units/test.
The target in test [24] is Inactivated influenza B virus Hong Kong 5/72 (Influenza B virus Hong Kong 5/72). Briefly: lateral-flow sandwich, 9901 line + 2/3-Eu, 0.0041 HA units.
Test [25] has the same target. Briefly: lateral-flow sandwich, 9901 line + 2/3-Eu, 0.0021 HA units.
Test [26] shares this target. Briefly: lateral-flow sandwich, 9901 line + 2/3-Eu, 0.0328 HA units.
The target is the same in test [27]. The test is described as follows: lateral-flow sandwich, 9901 line + 2/3-Eu, 0.0123 HA units.
Test [28] has the same target. Briefly: lateral-flow sandwich, 9901 line + 2/3-Eu, 0.0082 HA units.
The target is the same in test [29].
Test [30] shares this target. Briefly: lateral-flow sandwich, 9901 line + 2/3-Eu, 0.0164 HA units.
Test [31] shares this target. The test is described as follows: lateral-flow sandwich, M2110171 line + 2/3-Eu, 0.0328 HA units.
For test [32] the target is unchanged. Briefly: lateral-flow sandwich, B line: M2110171 striped + 2/3-Eu.
Test [33] shares this target. Briefly: lateral-flow sandwich, M2110171 line + 2/3-gold, 0.164 HA/test.
For test [34] the target is unchanged. Briefly: lateral-flow sandwich, M2110171 line + 2/3-Eu, 0.004 HA units/test.
Test [35] has the same target. Briefly: lateral-flow sandwich, M2110171 line + 2/3-gold, 0.041 HA/test.
The target is the same in test [36]. Briefly: lateral-flow sandwich, M2110171 line + 2/3-Eu, 0.002 HA units/test, against 0 HA.
Test [37] shares this target. Briefly: lateral-flow sandwich, M2110171 line + 2/3-Eu, 0.032 HA units/test, against 0 HA.
For test [38] the target is unchanged. Briefly: lateral-flow sandwich, M2110171 line + 2/3-Eu, 0.016 HA units/test, against 0 HA.
Test [39] has the same target. Briefly: lateral-flow sandwich, M2110171 line + 2/3-Eu, 0.002 HA units/test.
Test [40] shares this target. Briefly: lateral-flow sandwich, M2110171 line + 2/3-Eu, 0.0041 HA units.
For test [41] the target is unchanged. The test is described as follows: lateral-flow sandwich, M2110171 line + 2/3-Eu, 0.032 HA units/test.
Test [42] has the same target. Briefly: lateral-flow sandwich, M2110171 line + 2/3-Eu, 0.008 HA units/test.
The target is the same in test [43]. The test is described as follows: lateral-flow sandwich, M2110171 line + 2/3-Eu, 0.008 HA units/test, against 0 HA.
The target is the same in test [44]. The test is described as follows: lateral-flow sandwich, M2110171 line + 2/3-Eu, 0.004 HA units/test, against 0 HA.
The target is the same in test [45]. The test is described as follows: lateral-flow sandwich, M2110171 line + 2/3-Eu, 0.0164 HA units.
Test [46] shares this target. The test is described as follows: lateral-flow sandwich, M2110171 line + 2/3-Eu, 0.0021 HA units.
For test [47] the target is unchanged. Briefly: lateral-flow sandwich, M2110171 line + 2/3-Eu, 0.0123 HA units.
Test [48] has the same target. The test is described as follows: lateral-flow sandwich, M2110171 line + 2/3-Eu, 0.016 HA units/test.
The target is the same in test [49]. Briefly: lateral-flow sandwich, M2110171 line + 2/3-Eu, 0.0082 HA units.
Test [50] shares this target. The test is described as follows: lateral-flow sandwich, M2110171 line + 2/3-gold, 0.021 HA/test.
Test [51] has the same target. Briefly: lateral-flow sandwich, M2110171 line + 2/3-gold, 0.082 HA/test.

On to anti-Flu A Medix 7304 antibody, for which the Signal/noise (S/N) ratio in test [1] stood at 2.03. In addition, the fluorescence intensity (AVG) was 1270 in [2]; 1600 in [6]; 8690 in test [13]; 3730 in test [16]; 2280 in [17]; 4080 in [21]. For the same substance, the S/N in test [3] was found to be 37.4; in test [4], 4.5; in [7] it was 1.4; in test [8] it was 1.8; in test [18], 2.6. Further, the fluorescence signal in test [5] is 936 and 1040; in test [9], 2550 and 2400; in [20] it was 21100 and 20000; in test [22] it was 794 and 776; in test [23] it was 1420 and 1440. Also, the fluorescence signal (AVG) in test [5] is 987; in test [9] it was 2470; in test [20], 20500; in test [22], 785; in [23], 1430. Further, the Peak Intensity in test [10] is 13.2 and 9.1; in test [12], 26.4 and 22.5; in [14] it was 4.8 and 8.6; in [15], 2.2 and 3.3; in test [19], 14.8 and 13.5. Besides, the Peak Intensity(avg) in test [10] stood at 11.2; in [12], 24.5; in test [14], 6.7; in test [15], 2.8; in test [19], 14.1. Further, in test [11], the Signal/noise of test line was 4.8.
For anti-Flu B Medix 9901 antibody, the fluorescence intensity (AVG) was 1580 in [24]; 1490 in test [25]; 9990 in test [26]; 2710 in test [27]; 2480 in test [28]; 5440 in [30]. Also, in [29], the S/N ratio amounted to 4.96.
Take “Anti-Flu B nucleoprotein M2110171 (Fitzgerald) (antibody)”: the fluorescence intensity (AVG) in test [31] amounted to 12800; in test [40] it was 2670; in [45] it was 7130; in test [46], 1380; in test [47], 6550; in test [49], 3590. Moreover, the Signal/noise of test line in test [32] is 437. The Peak Intensity in test [33] was 14.4 and 13.3; in test [35], 4.8 and 4.6; in test [50] it was 2.8 and 2.7; in test [51] it was 7.3 and 8.2. Besides, the Peak Intensity(avg) in test [33] is 13.8; in test [35] it was 4.67; in [50], 2.78; in test [51] it was 7.76. Further, the Net peak height is 884 and 896 in test [34]; 496 and 539 in test [39]; 7200 and 6970 in [41]; 1630 and 1700 in test [42]; 3330 and 2570 in test [48]. The Net peak height (AVG) turned out to be 890 in [34]; 517 in [39]; 7090 in [41]; 1670 in test [42]; 2950 in test [48]. For the same substance, the signal/noise in [36] worked out at 3.5; in test [37], 47.6; in test [38], 19.8; in test [43], 11.2; in test [44], 6.
